From paper doi:10.1101/266833 (bioRxiv, 2018) come the findings set out here.

The assay addresses T1, yUpf1-HD (220-851) (S. cerevisiae, UniProt P30771 220-851).
T1 sequence (looked up): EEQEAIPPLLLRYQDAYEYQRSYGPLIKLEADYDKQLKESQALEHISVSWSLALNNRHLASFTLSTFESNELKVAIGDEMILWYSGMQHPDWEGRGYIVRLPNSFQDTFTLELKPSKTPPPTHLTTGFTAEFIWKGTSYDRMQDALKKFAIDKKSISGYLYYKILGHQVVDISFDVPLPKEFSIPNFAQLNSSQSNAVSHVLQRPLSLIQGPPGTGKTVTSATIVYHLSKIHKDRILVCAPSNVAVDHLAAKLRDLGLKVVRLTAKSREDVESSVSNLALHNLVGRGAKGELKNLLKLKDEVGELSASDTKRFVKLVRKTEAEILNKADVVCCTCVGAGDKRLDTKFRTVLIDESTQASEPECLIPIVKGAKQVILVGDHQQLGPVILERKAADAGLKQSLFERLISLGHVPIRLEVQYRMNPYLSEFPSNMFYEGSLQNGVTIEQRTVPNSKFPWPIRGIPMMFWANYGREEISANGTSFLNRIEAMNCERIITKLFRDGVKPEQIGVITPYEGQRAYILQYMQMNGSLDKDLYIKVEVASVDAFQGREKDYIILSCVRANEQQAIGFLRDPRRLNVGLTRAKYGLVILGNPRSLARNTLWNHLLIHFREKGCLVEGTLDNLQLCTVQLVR
Description: pull-down.

B1: CBP-Nmd4 (natural protein, S. cerevisiae, UniProt Q12129 1-218, looked up)
chain: MTQYNFIIDASAFEKGLGNIKRWCSDCTEAVTLNFYIPTFTLNELDFLQQRRKSFAARESLKFIDRLDDSKFANLKVFIEFPEVLDIILWSDVMEHNDSSGKINIAKLPKRLKNLLKSCIYKCYLEGNEGLHWFLISEDPQIREMAMQCNIPSCSIVDVDSILSKDMNDKSFRESEKFNNMMLKNGTKEESENGREIIRTNFNKTVYASRGTGELWSP
Turning to B1, the binding result is reported as “binds”.
